US20220380456A1 (UNITED KINGDOM RESEARCH AND INNOVATION, published 2022)

How the values were obtained:
[1] = target: T1, His6-TEV-MSP2N2 (CA15915) (human Apo A-I derived, engineered, UniProt P02647 79-267, limits assumed); test: ELISA, periplasmic extract on coated MSP (1 µg/mL in 100 µL, Apo- and Nanodisc-state), EPEA-tag detection, OD405 after overnight
T1 construct: Membrane scaffold protein; The entry holds the 6xHis tag, the TEV cleavage site and MSP2N2; Tested in Apo-state, in Nanodisc-state, and as the belt of nanodiscs loaded with GABAAR-β3
Procedure: (§1) Nanobodies were detected after 1 h (FIG. 2A) and overnight (FIG. 2B) subsequent incubation with a biotinylated CaptureSelect antibody and developed with a Streptavidin Alkaline Phosphatase conjugate.

[2] = target: T2, His6-TEV-MSP1D1 (CA15914) (human Apo A-I derived, engineered, biotinylated with EZ-link NHS-Biotin for the BLI experiment only); test: as above
T2 construct: Membrane scaffold protein; The entry holds the 6xHis tag, the TEV cleavage site and MSP1D1; Tested in Apo-state (lipid free) and in Nanodisc-state (POPC nanodisc, two MSP1D1 per nanodisc)
T2 chain: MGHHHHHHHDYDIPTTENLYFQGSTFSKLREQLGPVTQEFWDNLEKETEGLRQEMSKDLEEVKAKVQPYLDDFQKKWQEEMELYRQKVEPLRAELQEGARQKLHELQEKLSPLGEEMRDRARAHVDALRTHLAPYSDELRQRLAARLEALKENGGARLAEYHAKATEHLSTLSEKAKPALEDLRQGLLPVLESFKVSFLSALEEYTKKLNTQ
Procedure: as §1

MSP1E3D1 = target: T3, MSP1E3D1 (human Apo A-I derived, engineered); test: ELISA on coated MSP variants, n=3
T3 construct: also called MSP1E1D3 MSP variant
T3 chain: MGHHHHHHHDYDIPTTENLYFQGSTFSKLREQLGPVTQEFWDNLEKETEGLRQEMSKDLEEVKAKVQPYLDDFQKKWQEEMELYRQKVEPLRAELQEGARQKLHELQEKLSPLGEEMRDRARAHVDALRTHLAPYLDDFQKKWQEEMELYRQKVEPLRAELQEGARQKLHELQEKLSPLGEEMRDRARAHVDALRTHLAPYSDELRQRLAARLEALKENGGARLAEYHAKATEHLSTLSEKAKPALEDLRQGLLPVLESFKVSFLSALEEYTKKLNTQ

[3] = target: T2, His6-TEV-MSP1D1 (CA15914); test: BLI (OctetRED96), biotinylated Apo MSP1D1 on streptavidin sensors, 1:2 binding model
[4] = target: T2, His6-TEV-MSP1D1 (CA15914); test: BLI (OctetRED96), biotinylated MSP1D1 (Apo-state) on streptavidin sensors, 1:2 binding model, 30 °C; biotinylated Apo-state MSP1D1 on the SA sensor; 30 C; 1:2 binding model
[5] = target: T1, His6-TEV-MSP2N2 (CA15915); test: ELISA, purified MegaBody on coated MSP (Apo- or Nanodisc-state) vs non-coated wells, A405
[6] = target: T2, His6-TEV-MSP1D1 (CA15914); test: as above
[7] = target: T1, His6-TEV-MSP2N2 (CA15915); test: ELISA, purified MegaBody 200 nM on coated MSP (1 µg/mL in 100 µL, Apo- and Nanodisc-state), EPEA-tag detection, OD405 after 1 h
[8] = target: T2, His6-TEV-MSP1D1 (CA15914); test: as above

B1: MP1522_A12 Nanobody (CA15885) (VHH)
VHH: QVQLVESGGGLVQAGGSLRLSCAASGRTFSSYNMAWFRQVPGKEREFVASIARTGSGTYYRDSVKGRFTISRDNAKNTVYLQMNSLKPQDTAVYYCTAGGSLATISDYWGQGTQVTVSS
notes: Entry includes 6xHis and EPEA tags; tested as periplasmic extract
binding result [1]: binds | binding result [2]: binds

B2: MP1522_B7 Nanobody (CA15886) (VHH)
VHH: QVQLVESGGGLVQAGGSLRLSCAASGRSFSSYGMGWFRQAPGKEREFAAGITGTAGITYYTDSVKGRFTISRDNAKNTVYLQMNNLKPEDTAVYYCAAGLTSYAGRGAAGYDYWGQGTQVTVSS
notes: as for B1
binding result [1]: binds | binding result [2]: binds

B3: MbNbF3^c7HopQ MegaBody (CA15192) (other)
chain: QVQLVESGGGLVQTKTTTSVIDTTNDAQNLLTQAQTIVNTLKDYCPILIAKSSSSNGGTNNANTPSWQTAGGGKNSCATFGAEFSAASDMINNAQKIVQETQQLSANQPKNITQPHNLNLNSPSSLTALAQKMLKNAQSQAEILKLANQVESDFNKLSSGHLKDYIGKCDASAISSANMTMQNQKNNWGNGCAGVEETQSLLKTSAADFNNQTPQINQAQNLANTLIQELGNNTYEQLSRLLTNDNGTNSKTSAQAINQAVNNLNERAKTLAGGTTNSPAYQATLLALRSVLGLWNSMGYAVICGGYTKSPGENNQKDFHYTDENGNGTTINCGGSTNSNGTHSYNGTNTLKADKNVSLSIEQYEKIHEAYQILSKALKQAGLAPLNSKGEKLEAHVTTSKYGSLRLSCAASGSGFGPNVMGWYRQAPGKRRELVATINRIGNINYGDSVKGRFTLSREIAVNTVYLQMNSLKPEDAANYYCYAAKYGVDYWGKGTQVTVSSHHHHHHEPEA
notes: MegaBody: c7HopQ scaffold inserted in the first β-turn of Nanobody MP1521_F3; Entry includes 6xHis and EPEA tags; also called MbF3^c7HopQ MegaBody
binding result (MSP1E3D1): binds | koff [3]: 0.00103 s⁻¹ | kon [3]: 44000 M⁻¹ s⁻¹ | Kd [4]: 23.5 nM | fold ELISA signal over no MSP [5]: ≥ 4 fold | fold ELISA signal over no MSP [6]: ≥ 4 fold

B4: MegaBody MbNb25^c7HopQ against GABAAR-β3 (other)
chain: QVQLVESGGGLVQTKTTTSVIDTTNDAQNLLTQAQTIVNTLKDYCPILIAKSSSSNGGTNNANTPSWQTAGGGKNSCATFGAEFSAASDMINNAQKIVQETQQLSANQPKNITQPHNLNLNSPSSLTALAQKMLKNAQSQAEILKLANQVESDFNKLSSGHLKDYIGKCDASAISSANMTMQNQKNNWGNGCAGVEETQSLLKTSAADFNNQTPQINQAQNLANTLIQELGNNTYEQLSRLLTNDNGTNSKTSAQAINQAVNNLNERAKTLAGGTTNSPAYQATLLALRSVLGLWNSMGYAVICGGYTKSPGENNQKDFHYTDENGNGTTINCGGSTNSNGTHSYNGTNTLKADKNVSLSIEQYEKIHEAYQILSKALKQAGLAPLNSKGEKLEAHVTTSKYGSLRLSCAASGHTFNYPIMGWFRQAPGKEREFVGAISWSGGSTSYADSVKDRFTISRDNAKNTVYLEMNNLKPEDTAVYYCAAKGRYSGGLYYPTNYDYWGQGTQVTVSSHHHHHHEPEA
notes: MegaBody derived from Nb25 with the c7HopQ scaffold
binding result [7]: no binding (tested: 200 nM) | binding result [8]: no binding (tested: 200 nM) | binding result (MSP1E3D1): no binding
